The numbers were not newly measured in paper PMC8760628, which cites them from elsewhere.

By Kd is commonly meant a measure of binding affinity in units of concentration.

This series has as its target IL-18 mature (Homo sapiens) (UniProt Q14116).

Sequence of IL-18 mature (Homo sapiens) (Q14116 37-193): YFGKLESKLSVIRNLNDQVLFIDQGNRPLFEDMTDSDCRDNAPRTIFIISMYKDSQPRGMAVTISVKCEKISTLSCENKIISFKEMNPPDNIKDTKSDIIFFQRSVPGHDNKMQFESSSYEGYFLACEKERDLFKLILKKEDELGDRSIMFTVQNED
Sequence of IL-18BP (O95998 31-194): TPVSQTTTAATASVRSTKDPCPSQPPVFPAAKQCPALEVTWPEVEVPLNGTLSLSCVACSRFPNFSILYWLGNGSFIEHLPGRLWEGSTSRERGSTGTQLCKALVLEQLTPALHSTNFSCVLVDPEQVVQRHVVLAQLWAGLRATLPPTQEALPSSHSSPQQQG

Turning to IL-18BP (from UniProt O95998), the dissociation constant Kd was 0.5 nM.
